Consider one molecule from patent US20230184768A1 (MESO SCALE TECHNOLOGIES, published 2023).

The target of this assay is T1, labeled ACE2 (angiotensin-converting enzyme 2) (human, UniProt Q9BYF1 18-740).
T1 construct: also called ACE2 detection reagent
Briefly: labeled ACE2 on immobilized Mixed Panel, ECL.

T1 sequence (Q9BYF1 18-740 limits assumed): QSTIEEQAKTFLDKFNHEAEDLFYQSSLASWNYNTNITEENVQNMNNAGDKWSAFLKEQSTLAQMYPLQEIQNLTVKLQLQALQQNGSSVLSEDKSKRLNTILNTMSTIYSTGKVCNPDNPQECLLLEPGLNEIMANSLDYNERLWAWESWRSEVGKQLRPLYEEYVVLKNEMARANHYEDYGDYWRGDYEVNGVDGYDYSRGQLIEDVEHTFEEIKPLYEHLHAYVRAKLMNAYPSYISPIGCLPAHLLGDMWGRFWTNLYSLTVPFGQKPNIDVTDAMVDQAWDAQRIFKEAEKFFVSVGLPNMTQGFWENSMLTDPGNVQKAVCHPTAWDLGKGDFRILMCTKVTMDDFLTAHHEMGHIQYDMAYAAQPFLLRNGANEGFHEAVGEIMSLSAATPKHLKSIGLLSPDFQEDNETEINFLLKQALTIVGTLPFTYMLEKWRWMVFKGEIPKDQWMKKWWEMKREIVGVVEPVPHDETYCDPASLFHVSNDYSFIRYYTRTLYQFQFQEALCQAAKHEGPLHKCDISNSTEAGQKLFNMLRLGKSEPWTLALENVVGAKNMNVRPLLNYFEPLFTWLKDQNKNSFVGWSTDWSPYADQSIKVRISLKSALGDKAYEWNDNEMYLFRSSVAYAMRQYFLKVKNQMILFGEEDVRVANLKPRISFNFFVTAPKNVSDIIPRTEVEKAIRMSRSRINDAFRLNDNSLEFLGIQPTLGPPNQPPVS

B1: HCoV-HKU1 S protein (other)
chain: AVIGDFNCTNFAINDLNTTVPRISEYVVDVSYGLGTYYILDRVYLNTTILFTGYFPKSGANFRDLSLKGTTYLSTLWYQKPFLSDFNNGIFSRVKNTKLYVNKTLYSEFSTIVIGSVFINNSYTIVVQPHNGVLEITACQYTMCEYPHTICKSKGSSRNESWHFDKSEPLCLFKKNFTYNVSTDWLYFHFYQERGTFYAYYADSGMPTTFLFSLYLGTLLSHYYVLPLTCNAISSNTDNETLQYWVTPLSKRQYLLKFDNRGVITNAVDCSSSFFSEIQCKTKSLLPNTGVYDLSGFTVKPVATVHRRIPDLPDCDIDKWLNNFNVPSPLNWERKIFSNCNFNLSTLLRLVHTDSFSCNNFDESKIYGSCFKSIVLDKFAIPNSRRSDLQLGSSGFLQSSNYKIDTTSSSCQLYYSLPAINVTINNYNPSSWNRRYGFNNFNLSSHSVVYSRYCFSVNNTFCPCAKPSFASSCKSHKPPSASCPIGTNYRSCESTTVLDHTDWCRCSCLPDPITAYDPRSCSQKKSLVGVGEHCAGFGVDEEKCGVLDGSYNVSCLCSTDAFLGWSYDTCVSNNRCNIFSNFILNGINSGTTCSNDLLQPNTEVFTDVCVDYDLYGITGQGIFKEVSAVYYNSWQNLLYDSNGNIIGFKDFVTNKTYNIFPCYAGRVSAAFHQNASSLALLYRNLKCSYVLNNISLTTQPYFDSYLGCVFNADNLTDYSVSSCALRMGSGFCVDYNSPSSSSSRRKRRSISASYRFVTFEPFNVSFVNDSIESVGGLYEIKIPTNFTIVGQEEFIQTNSPKVTIDCSLFVCSNYAACHDLLSEYGTFCDNINSILDEVNGLLDTTQLHVADTLMQGVTLSSNLNTNLHFDVDNINFKSLVGCLGPHCGSSSRSFFEDLLFDKVKLSDVGFVEAYNNCTGGSEIRDLLCVQSFNGIKVLPPILSESQISGYTTAATVAAMFPPWSAAAGIPFSLNVQYRINGLGVTMDVLNKNQKLIATAFNNALLSIQNGFSATNSALAKIQSVVNSNAQALNSLLQQLFNKFGAISSSLQEILSRLDALEAQVQIDRLINGRLTALNAYVSQQLSDISLVKFGAALAMEKVNECVKSQSPRINFCGNGNHILSLVQNAPYGLLFMHFSYKPISFKTVLVSPGLCISGDVGIAPKQGYFIKHNDHWMFTGSSYYYPEPISDKNVVFMNTCSVNFTKAPLVYLNHSVPKLSDFESELSHWFKNQTSIAPNLTLNLHTINATFLDLYYEMNLIQES
notes: also called HCoV-HKU1 spike protein
As for B1, the binding result is “no binding”.
